“And” between values parts separate entries of the source, which are not always exact repeats. Equal values may be shown once.
Biological target: human IL-22 receptor complex IL22R1 and IL10R2, overexpressed on HEK 293 cells (human) (UniProt Q8N6P7)
Experiment: cell-based or functional assay

Sequence of human IL-22 receptor complex IL22R1 and IL10R2, overexpressed on HEK 293 cells (human) (Q8N6P7 16-574, chain 1 of 2): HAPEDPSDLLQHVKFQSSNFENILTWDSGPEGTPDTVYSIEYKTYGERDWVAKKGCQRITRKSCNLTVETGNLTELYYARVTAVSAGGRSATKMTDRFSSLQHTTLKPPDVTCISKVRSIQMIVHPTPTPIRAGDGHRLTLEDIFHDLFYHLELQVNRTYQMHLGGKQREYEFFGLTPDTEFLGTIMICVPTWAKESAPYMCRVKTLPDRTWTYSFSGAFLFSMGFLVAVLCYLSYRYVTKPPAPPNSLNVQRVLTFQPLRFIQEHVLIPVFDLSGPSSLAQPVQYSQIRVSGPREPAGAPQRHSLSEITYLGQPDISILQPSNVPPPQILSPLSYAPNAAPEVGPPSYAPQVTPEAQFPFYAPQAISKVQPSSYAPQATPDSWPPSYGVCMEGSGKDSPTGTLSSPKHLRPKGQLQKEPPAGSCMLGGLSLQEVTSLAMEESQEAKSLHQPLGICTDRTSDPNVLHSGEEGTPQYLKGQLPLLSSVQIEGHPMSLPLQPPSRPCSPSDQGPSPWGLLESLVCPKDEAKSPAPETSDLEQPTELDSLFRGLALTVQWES
Sequence of human IL-22 receptor complex IL22R1 and IL10R2, overexpressed on HEK 293 cells (human) (Q08334 20-325, chain 2 of 2, further chain): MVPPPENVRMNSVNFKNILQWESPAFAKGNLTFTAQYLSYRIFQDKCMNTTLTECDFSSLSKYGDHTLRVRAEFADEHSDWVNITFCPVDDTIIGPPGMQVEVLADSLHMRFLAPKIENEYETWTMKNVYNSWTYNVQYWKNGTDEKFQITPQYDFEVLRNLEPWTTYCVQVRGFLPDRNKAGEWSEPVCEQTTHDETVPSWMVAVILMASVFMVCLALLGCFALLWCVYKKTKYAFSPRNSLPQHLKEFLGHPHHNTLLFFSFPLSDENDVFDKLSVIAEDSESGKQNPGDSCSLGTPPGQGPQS

potency in the STAT3 luciferase reporter assay, against the IL-22 Fc fusion proteins: 2 fold and 3 fold
Substance: native IL-22 protein produced in CHO cells (from UniProt Q9GZX6 34-179) (ligand)
